How the values were obtained:
Experiment in all cases: pull-down binding Z-score (relative to library population); higher = stronger binding
[1] = test system: G-clamp-N3 (biotin conjugate); settings: RNA library: Library-1 (pre-miRNA loops + repeats)
In short: (§1)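 Biotin-conjugated small molecule (100 pmol) on streptavidin beads was incubated with 1 μg of heat-folded Cy5- or Cy3-end-labelled RNA library in phosphate/NaCl/KCl buffer at 25 °C for 60 min. Following three washes, RNA was eluted with hot SDS and hybridised at 55.5 °C for 20 h to a DNA barcode microarray. The binding value is a Z-score computed from the library mean and standard deviation, after subtraction of beads without compound and averaging of barcoded replicate probes with the highest and lowest excluded.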

[2] = test system: TO-3-N3 (biotin conjugate); settings: RNA library: Library-2
In short: as §1

[3] = test system: TO-3-N3-2 (biotin conjugate); settings: RNA library: Library-2
In short: as §1

TO-N3 (biotin conjugate) = settings: RNA library: Library-2
In short: as §1

[4] = test system: TO-N3-2 (biotin conjugate); settings: RNA library: Library-2
In short: as §1

Sequence	pull-down binding Z-score [1]	pull-down binding Z-score [2]	pull-down binding Z-score [3]	pull-down binding Z-score (TO-N3 (biotin conjugate))	pull-down binding Z-score [4]
AACAGGACCUGUGCUCACUGGGGCCUGCA [hsa-mir-6797]	-0.344	0.406	0.298	1.02	1.55
GAACACUAUUCCAUUGUGUUC [hsa-mir-588]	0.0194	-0.971	-0.701	-1.33	-1.31
UGUAUAUAGCAUAUGUGUAUACAUACACACACACACACACACACACACA [hsa-mir-8485]	-1.14	0.396	-0.16	0.167	-0.143
CUUUCUGUUGGCUAAAAGAAAAGAAAG [hsa-mir-518e]	1.11	-0.396	0.129	-0.366	0.0576
GGUGGCAAUCAAGGUCUAGCCACC [hsa-mir-4733]	1.02	0.369	0.265	0.287	0.228
CGGAUCUCGAGGGUGCUUAUUGUUCGGUCCG [hsa-mir-615]	1.11	0.418	0.219	0.185	0.351
GGGGCCCUACUUUAAGGGCCCU [hsa-mir-8087]	1.03	0.997	0.194	0.868	-0.706
GAGACUUUAAAAGCGUCUC [hsa-mir-3926-1]	0.184	-0.747	-0.343	-0.993	-1.01
CAACAGUUCUGUAGCGCAAUUGUG [hsa-mir-203a]	0.267	0.0356	0.0351	0.622	1.07
AUCUGAUGUUGAAUACUCUUUAAGU [hsa-mir-1245a]	-1.01	-0.143	-0.281	-0.322	-0.685
UUGGUGUGUAUUGCCUUGUCAA [hsa-mir-1179]	-0.723	-0.972	-0.217	-0.924	-0.0369
AUGAGCUAAAAAUCCCCAAGCUCU [hsa-mir-4769]	-0.0764	-0.414	-0.358	-0.477	-0.0561
UGCAGAUGUGGACUGCUAAAUGCA [hsa-mir-1253]	-0.572	-0.411	-0.171	-0.275	0.384
AGGUAGUGUGAUUACCCAACCUACU [hsa-mir-93]	0.373	-0.148	-0.179	0.0315	0.272
CCAUGCAACAUUUGG [hsa-mir-1302-4]	0.29	-0.262	-0.327	-0.359	-0.696
UUCUAAUGCCAAGAA [hsa-mir-1279]	-0.241	0.835	-0.117	0.773	-0.306
ACAGUGGACUUGGUGACGCUGU [hsa-mir-675]	1.67	-0.46	-0.252	-0.456	-0.259
CUGGCCAUCAGUGUGGGCUAAC [hsa-mir-6732]	-0.237	-0.0637	-0.117	0.33	0.569
UCUUCCCAGAGUCAGGAAAA [hsa-mir-320c-1]	-1.1	-0.17	-0.0416	-0.0041	0.191

Sequence	pull-down binding Z-score [1]	pull-down binding Z-score [2]	pull-down binding Z-score [3]	pull-down binding Z-score (TO-N3 (biotin conjugate))	pull-down binding Z-score [4]
AAUUUUCUCUUGUCUAAAAGAAAAGAACG [hsa-mir-521-2]	-0.762	-0.905	-0.0994	-0.996	-0.765
AAUGCAGUCUGCACCCUGCUGCAUU [hsa-mir-6504]	-0.398	0.237	-0.145	0.0527	0.0157
CAGACCAUGCCACAUCCGUCUG [hsa-mir-7152]	-0.704	-0.515	-0.604	-0.651	-0.334
UGUUGGCAGCCCAAGAUGACA [hsa-mir-4686]	-0.568	0.375	-0.0148	0.581	0.58
GUUUAUUUUGUAGC [hsa-mir-4317]	-1.09	0.299	-0.0511	0.221	-0.593
CAGAGUUCCCUUCUUGUGAGCUCAG [hsa-mir-6733]	-0.936	-0.518	-0.714	-0.415	0.42
CGUGCGCCAGUGGAG [hsa-mir-6089-2_6089-1]	-0.0599	0.0799	-0.139	0.573	0.982
GGCUGGGCAGGCGGAAAGAGGUCUGAACUGCCUCUGCC [hsa-mir-6791]	0.578	-0.139	-0.0685	-0.0487	0.358
AAAAUUCAUGGCCUACAGCUGCCUCUUGCCAAACUGCACUGGAUUUU [hsa-mir-5010]	-1.45	-0.25	-0.176	-0.482	0.111
GAUGCUGUCUAUUCUAAAGGUAC [hsa-mir-101-1]	-0.819	-0.772	-0.32	-0.577	0.0666
UCUUGAAUUUUUGCCAGUUCAAGA [hsa-mir-5197]	0.24	-0.956	-0.517	-1.33	-1.38
UUGUGUAUGUACUUAGCUGUACUAUA [hsa-mir-1244-1_1244-4_1244-2_1244-3]	0.509	-0.689	-0.417	-0.627	-0.486
UAGGUUGUUAUUUAAUCCAACU [hsa-mir-190a]	-1	-0.24	-0.00409	-0.267	-0.661
AUCUGAGGUGACUGGCACAGAAGACUCAGG [hsa-mir-6735]	-0.394	0.238	0.101	0.673	0.797
UCCCCUCAGGA [hsa-mir-5703]	0.99	0.0295	-0.595	-0.256	-0.802
GCAGAUAGUGGUCCUCUCCGUGCUACCGC [hsa-mir-106b]	-0.198	-0.0735	-0.0832	0.316	1.16
UAGGGCGCGGAGGGCGGACCGGGAA [hsa-mir-638]	0.973	5.36	6.57	5.19	4.4
CUGGGUGGGACACUCAG [hsa-mir-4692]	-0.443	1.24	0.311	0.91	0.0278
